This data set is described as follows: protease stability score; higher = more stable; yeast display proteolysis, trypsin and chymotrypsin.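 Also: log10 excess protease needed over predicted unfolded state with 0 meaning unfolded.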

“DTEDNHKLREVIRTNNPQEIREMMDPNVKVRYGNKEIEGRDQAVKHEQDLQHRADRVKIEDMRVHGDKLVVVWSINIDGSEFRFSFEARIHNGKVKFAQIQFTDPDLERKFDDMLQ” registered a protease stability score of 0.324.

“DTEELQRLLTLVETNDFETLAKQADENARADVGDHKITGREDITRWAKQLSDRIDHVEVRSLDIQGDKAVAVLQFHVNGRTMVFRVHISAHNGKVKHFQVKVRDENARKQLKRVVD” came in with a protease stability score of 0.147.

As to “DTEERAEDFMHIMQNAATHGDPNIQRHLADKHVRVEVGDKTVSGREEHKTEFDKRVKQYDSISVNMRKMEIDGDKARFNVEERYNTNGRNQHHDVKQQAIVQGDKVHLDRVDNK”, the protease stability score was -0.603.

As for “DTEEREKVMEIMRTGDPDKLHKLMDKNVKVVVGDKRYHGREMVEELVQKLKSQIDHIEVKDYTIQGDNLILNAVINVDGRSVELVIFVRVHNGRIKHMNFNVTDEEEQKKLDENLS”, the protease stability score was 1.34.

For “DTEKLDRFAHEFVKVLREGDEDRMRKLADEDASMNIGDKEYRGREEVAKALREYRERYDHLQVDSIDVQGEHISVKAQVRIDGRRRRARFEVRMHNGRIKEVNFDPDLLKEQHT”, the protease stability score was 0.206.

The sequence “DTEKTTELKKMFDHEQEGNENHLMRMFDPNATVQVGDKRIHGREDLQRWLDRFRKNQRVNVRSITVDVQGERFRVEVEADAKHNGRPNQMHRSMEVEFHNGRIKRADFQTDG” yielded a protease stability score of 0.124.

Turning to “DTELKDQIKRFLSERNSGNPQKMVEQMDPNANMSVGDKSVRGREQVSEQAEREKRELHYRVRSVDISVNGDKVKVKINVEREHNGRPFTMTLDLTIRAHNGRLTRVEVSLSEDDKREIKR”, the protease stability score worked out at 0.521.

Consider “DTELTHELSHRIKDNNWEDLSKNADENVEFRVGNKEYHGKEEFQHLQENLKRQIDDVKIHSLTAQGDHLEADVVYNVNGRDLRFTFHMTVRNGKIKEMNASFRDESQVNTMLTVLN”, for which the protease stability score was -0.238.

In the case of “DTENEKLQRRFMKALKTNDPHRAREMADENAKVQVGDKRIHGMQTVVEDLEREWREQRNDVKVRSVSNEGNKVNMDATMKVEHNGKPKHFNVVYRATVHNGRIHELRVERDG”, the protease stability score turned out to be 0.088.

As to “DTENVKKATDYVHALNTGDEHRVKELMDPNARIRYGDKEVKGHDEIAKTLKTERDQSRVEFDIKRVEHQGNKVSIDLNFRKNQNGQPRSTKVNITVVFHNGKIKEINIQTDG”, the protease stability score was 1.59.

In the case of “DTEQLKVFKEFVDAHRHNNPEELKKQMDKDVHFRVGNKQIHGREKAAHYWETIMHEIRVEWKSIVMKDSNGKAKAKFRFVENVNGKPQENTYDLEFSARNGRINSITMRFDEDQQRHHKK”, the protease stability score is 0.345.

Take “DTERNAKEAVTRLKKVFTHNDPDKIASMFDENAHIEVGDKRYHGHEEVKRWADDMRNQYDHWDADVRSIDVHGDKVHVEAVITAERNGKTLERTFVVIFDRDNGQLRIHELRDQ”: the protease stability score came to 0.926.

As to “DTESAQTFVDVLEEGDFDTLVNLMDKNARLQVGDTTFNGRENARHFFELMKDKVDHLKIDHYEIHGNHVNIDMKLNVNGKTVDVVVYVKFHNGRIQHLRIEARDPEDMRTFKENMR”, the protease stability score was determined as 1.35.

Consider “DTESLKKVEDVVNNNDKKKHERLLDKDVRIVVGDKEVRGREQAARDYKRFVNHADHIEIKRVRSNGDKLFIDRVVNFNGQTVHFVVTYVVKNGSIQEVSVKVTDKEHLKLYKEALR”, for which the protease stability score is 0.196.

“DTEVIHVLKRIMHAINEGDESQVRKNADPNVKVRVGNKSIHGREQLVEQMRRDVEEIRLEYKSFDAKDSDGHARARVKYQNEFNGKPQEKDDRATAVAHNGHLKSIRWRVPEDDLRDQDT”: the protease stability score is -0.014.

Regarding “DTEVQQRVEHYLRLREYNSPEHLIEMVDPNAKIEIGNKEFHGMENYAHTMRKRVEEWRLEIKHISVTIRNGRVVARIDQEVDIDGNPVRYTYKVVYDAHNGNIKHIKNDVDPRQQQQQHK”, the protease stability score came out at 0.176.

As to “DTHAVEVWRRVLRAKETGDEKTLEKNFDPNARFQVGDKTLHGMEQQVTENKRERDDLRVHVEIKEVKDQGDKAFVDMVMTAEVNGQPYRIRVEVVAVVRNGKIKELVINMDPRQQEQLDS”, the protease stability score is 0.28.

On to “DTHDEKHVAQNVVDALRRNDPDQLRRMMDPNVHFEVGDKTIHGREDAARQLKEIKKNVDHFQVDDVTMSNGRVHAIIRVEINGQERRNVVQADVKNGHVKFQRIKDQ”, for which the protease stability score was -0.084.

Consider “DTHDVKRILDELKTNDEDMNRHLVDPNAKLRIGDKEIHGREELTEFYHRFHKQVDSQRIKDVRVHGNRFRVEFEAVFNGQTVEASYEATFHNGKATSLRYTATSNEELKNLQKVMD”, for which the protease stability score was determined as 0.147.

As to “DTHKLREHARSMVEAMEDGDPQHLAKLMDENAKVTVGDKDVHGEEQAKRWAREWQKRFDHVEVDDLKVDNGRIRVKFHAQVNGREIFVIVKVEVRNGRIRSLSLEVRDEHVEKRLQD”, the protease stability score was found to be 0.909.

For the sequence “DTHNFKKYMELLKALETGDERTARKMADPNAEFVIGDKEWHGMEEFAQTRVEQFKEQSIEIKILDYKDKNGQVHIRYRIRVNRNGKPDEKEVVVRIENHNGRIHHVEYRDTG”, the protease stability score was found to be 0.09.

In turn, “DTKERQNRAEEINKNFKEGNPHEYMSMLDKNASAQVGDKQVHGRERMSKRIEDIVRRADKLTIETFHVSGDKVEIVVQLIVNGTRVRMEVEIKFENGHAKHVEFNPEQDKQLKQ” had a protease stability score of 0.421.

On to “DTQALKHARSVLEDNDWDKLQKLADKDARATVGDTTYHGREDIQTWLKRAEETVDHVNIKSISIDEDSISVRFVMNVNGKTVEMVITIQLHNGRIKFLRIQARSEEQEKTIHEVVD”, for which the protease stability score is -0.051.

Sequence “DTQEKLKHWWKHVQENIKTGDEDRLHEMVDPNASVQVGDKELHGREKIATTYVELMSRVDHVRIQITELEVHGNDFDLTFNYEADVNGRKEHDHYRVVLQEHNGQLRLVQMSEG” showed a protease stability score of 0.747.

As to “DTQKIVDDIAHEVVEVLKTGDPRKVVKLVDENARLQVGDKIVRGREDVKKRAEKENSRVDHREARVQEVTMHNGDVTIRFRVKDTHNGRSDSREYTIHLQEHDGKVFIQNMEDR”, the protease stability score is -0.261.

“DTRANEIWQDIVQALQTGDHERAIRLADPNVHFKVGDREVHGMTQFAHKQAQRHREARIELRVHSVRDRGDHVTVHYEMVVNVDGNPVKNTVTIYIVMRNGKLRSVEVSVDPRDVKRMRS” had a protease stability score of 0.108.

On to “DTRARDIARRFWEAIRKNDPDKIKNQADENADFKVGDKTIHGMDHIIHHWEKVNKHARFQWERMEIKDSPNHVDVKYQFIVDVDGEPKTINATAQFQFHNGRIKNYEIQVDPEQFKEITK”, for which the protease stability score came to 0.523.

For the sequence “DTRAREVLEKFLKALNKGDPDKMKRQADPNAKFHIGDKQVHGMDQMKEQIRTNQRHMKIDVQVQEVQVRNGRVVARMEVRQTHNGQPTSDILVVEAEVKNGRIKSAHWEKSS”, the protease stability score is -0.414.

The sequence “DTRDDERFKEFLKQIETNDPDKLVRMFDPNARIKVGDNELRGREQIHTFWKHVLDEQRVEYTDVKADFNGDKIEVDIRMVNQTNGEPEESRNKVEVKWHNGRLIDVIFRSDG” yielded a protease stability score of 0.113.

Sequence “DTRKVQEMAKQFVQAMKDNDRTTLEKLADEDARIRVGEKELHGRDQVATMVAHMAKNIDHIRVKKLSVDENHVNLVFEVEHNGRRVRIILRITARNGRIKHIQVDPDRVRELEG” showed a protease stability score of 1.01.

For the sequence “DTRSVMKDILKKIQENLKTGDPQHAADLFDPNVSVRVGDKELRGREQVRKKMKEERDRVDHVDMRIHDMKVSNGRVVVHYTWTVTVNGRKETNRAQLHADNEGDKALVTEVNVK”, the protease stability score is -0.106.

As for “DTRTDLRVAEKAAKAFHTNDPEKFKKQADPNAKAQYGDKTVHGMEDIVTRLKKFKDRVDHLRLNDIKSTGEKVDLNIQINVNGKNVEAKIDFHVRNGRLKTMKVDPNAVDAYRS”, the protease stability score was -0.19.

Take “DTRVARLVQEIMENVKKGSKEHLKQMVDPNVKIRVGDKTFHGREDFVTHLMDERKEARVDYHLKDVKDEGDKAFADVVQHVDKNGQPRNRHFIIDARAENGRLKEMRIENTK”: the protease stability score was -0.3.

Turning to “DTSDNKRAKELLDVLRTGDKEDFKNLVDENVRVVVGDKEVHGRDEIAEDISRKKKEMRYTFKVEDLQDHNGHVKVDMRQSSEHNGSPHHSDAKVTVNFENGKVHDVVLRDDG”, the protease stability score is -0.04.

For the sequence “DTTTEIQRLVHDFVRKIKTGDPKEFERLVDEDARVRVGDKTVSGREEAVSHMVETAQRADTMDVNITSVSIHNGHAKVEFHLKYDHNGKDVEQTIIFVMVKRNGHFRLKEMVQK”, the protease stability score was determined as 1.26.

As for “EDDAITRWEELERQQETGNEEKAQEMVDPNVKMRYGDDNFHGREEYRKLVHKIRKNWREDVKDVRFEDHGEEIKVEYRVHQDINGKPVNADVTAEAQMSNGRLKKFVLRFSETQEKEIES”, the protease stability score is 0.351.

As to “EDDRQRKFAKHANKVMETGDPREMEKLADENVRVVVGEKDVHGRERAQEWAKELSDRVDQIRIKDVDVDGNKVVIDLIVDHNGRQSTVTVDIEFHNGRAKSVTMHEK”, the protease stability score is -0.244.

Turning to “EDDVKRKQETWLKAVEDNNPEEAEEQADKHVQVVIGDKRIRGMEEMAHFIEHERRQADIRIQDYRISARGDKVRANISMHFNVNGTPEQASIKIQVTLSNGKIRKMVFRFDDQEFRRIQS”, the protease stability score was 1.1.

The sequence “EDEEAEEAIRIWQRNDPDQLNRMVDKDVSIHYGDKSYHGRHEVKKIWENYVKQVDRISFRHITRTGEHVSFEVEAVVNGKHVEFTASMEMKNGRAKDITFKATNEEDDKELQKNLE” came in with a protease stability score of 0.28.

“EDEEAEKLSEIQRTGDEERIARNADPNVRVNVGDKRVHGREHLVSIAKRLSKNVDSLEIKHVEIQGERMVVRFVMQVNGKHIHAEMEIQMSNGRITSRNQRYTSEDVEQNWRDAVD” gave a protease stability score of 0.255.

For the sequence “EDEELRKMVKQWEKGDPDQLLRYADEDAEFKVGDQQFHGREQLKHYIKRLKHRVDHFQIRKVTREGDRVRIDAFQVVNGRKIVYVFVLEVKNGRLKRLTMDFRDEKDERHFRTMLK”, the protease stability score came to 0.902.

As for “EDELLHILKEFIQAVNSGDSDKLRELMDPNVKAEYGDKEIHGREEIARQWRQIRHEIKFSWKHLHFEVKGDKLRVDFTVVMDVNGKPKHYRAVLYMKLKNGRITTLHVKMPEEEAKELNK”, the protease stability score came out at 0.363.

Turning to “EDELRDQFKRFMNAWERGDPDKLRSLVDPNAEVVVGDKVYHGMTHAADEIVRHMKESRYTIKIESINVNGDNIEVTARVTADHNGKPQDASFHASARLENGHVTSMEVQIRE”, the protease stability score was 0.916.

For the sequence “EDELRTMVDQVMEAQKTGDFDKFIEQFDPNAHRRVGDKEVEGQEEMRHEQKRRDDNIRVDYNRMSVQVSNGVAKLTVHLNAHVNGKPVRLTIDIVFHARNGRFQSMQVDFTREQEKRKRS”, the protease stability score was -0.213.

With “EDEMRKLAHKVMTAHQTGDPDRIARLMDPNVQVKVGDKTIHGKHQLKRKLTKDLKEMRVHIKSVKFSVQGDKVEVRANLVSRHNGQPHESTVDVRITARGDKLKHLNNQETQ”, the protease stability score was -0.263.

Consider “EDENMETMKDLLRAWQEGDEDRAQENADKDVTVEYGDRSFHGRSQLHRLVKERREKMRVQIKDVRFDISGDKIKIDLTYTKDHNGRPETRRVRIIARVNNGKVKFVRLDEHG”, for which the protease stability score was 0.652.

“EDENRKRIEHFLEVKEHGNPDEAKRLADPNVHLKVGDQTVHGRSQLSKILEKEVKEIRFSMQIDSYDDRPGRIKMSATMVLNINGQPIKVTFDAEYVLDNGRISHVEIRMDPTRLHEIKK” displayed a protease stability score of 0.64.

These data come from the NTF2 design screens of Basanta et al. (2020).
